Bounds are passed on as bounds.

Usually IC50 stands for the concentration that gives 50% inhibition. A low value points to greater potency in that assay.

Assay [1] concerns the target human melanocortin 4 receptor (human, UniProt P32245 1-332). In words: cell-based or functional assay.
The target in assay [2] is T1, human melanocortin 1 receptor (human, UniProt Q01726 1-317). The experiment in a line: cell-based or functional assay.
The target of assay [3] is T2, human melanocortin 3 receptor (human, UniProt P41968 1-323). The experiment in a line: cell-based or functional assay.
T2 sequence (P41968 whole entry): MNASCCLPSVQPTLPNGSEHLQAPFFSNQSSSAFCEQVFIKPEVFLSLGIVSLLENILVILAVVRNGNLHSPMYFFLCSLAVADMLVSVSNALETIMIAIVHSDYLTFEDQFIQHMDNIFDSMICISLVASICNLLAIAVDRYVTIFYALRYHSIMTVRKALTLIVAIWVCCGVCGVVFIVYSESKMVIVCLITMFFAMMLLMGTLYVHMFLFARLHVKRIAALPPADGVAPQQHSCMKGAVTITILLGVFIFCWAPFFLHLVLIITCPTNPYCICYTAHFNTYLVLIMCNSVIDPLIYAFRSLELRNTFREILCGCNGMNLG
Assay [4] deals with human melanocortin 5 receptor (human, UniProt P33032 1-325). The experiment in a line: cell-based or functional assay.
human melanocortin 5 receptor, sequence (P33032 whole entry): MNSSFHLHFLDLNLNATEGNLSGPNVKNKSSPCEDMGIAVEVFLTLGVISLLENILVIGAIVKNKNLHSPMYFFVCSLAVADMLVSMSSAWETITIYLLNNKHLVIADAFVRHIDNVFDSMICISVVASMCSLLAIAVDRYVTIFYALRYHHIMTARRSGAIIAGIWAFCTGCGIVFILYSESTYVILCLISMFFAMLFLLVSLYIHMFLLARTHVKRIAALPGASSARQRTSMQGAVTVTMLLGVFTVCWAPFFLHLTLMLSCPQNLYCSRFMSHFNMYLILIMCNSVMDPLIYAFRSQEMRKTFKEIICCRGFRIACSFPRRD
The target of assay [5] is T1, human melanocortin 1 receptor. The experiment in a line: competition with 125I-NDP-α-MSH, cells expressing hMC1R.
Assay [6] addresses T2, human melanocortin 3 receptor. The experiment in a line: competition with 125I-NDP-α-MSH, cells expressing hMC3R.

T1 sequence (Q01726 whole entry): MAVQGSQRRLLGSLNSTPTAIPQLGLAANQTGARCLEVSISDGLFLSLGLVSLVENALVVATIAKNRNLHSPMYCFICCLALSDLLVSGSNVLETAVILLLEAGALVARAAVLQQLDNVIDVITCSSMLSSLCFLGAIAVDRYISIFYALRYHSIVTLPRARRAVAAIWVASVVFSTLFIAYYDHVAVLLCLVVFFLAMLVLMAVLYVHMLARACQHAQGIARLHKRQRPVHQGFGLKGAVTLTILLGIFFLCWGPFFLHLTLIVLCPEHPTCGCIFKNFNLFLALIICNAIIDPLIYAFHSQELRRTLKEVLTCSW
human melanocortin 4 receptor, sequence (P32245 whole entry): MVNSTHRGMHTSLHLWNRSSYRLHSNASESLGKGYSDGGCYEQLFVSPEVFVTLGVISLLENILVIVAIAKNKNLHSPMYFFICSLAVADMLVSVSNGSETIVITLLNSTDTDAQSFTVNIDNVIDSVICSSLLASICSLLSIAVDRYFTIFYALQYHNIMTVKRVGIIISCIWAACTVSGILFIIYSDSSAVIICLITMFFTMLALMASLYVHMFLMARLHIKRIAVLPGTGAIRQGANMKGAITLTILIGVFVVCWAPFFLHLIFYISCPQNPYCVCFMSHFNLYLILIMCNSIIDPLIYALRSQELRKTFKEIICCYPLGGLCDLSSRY

B1: Ac-Arg-cyclo[Asp-Pip-D-Phe(4-F)-βArg-Trp-Lys]-NH2 (peptide)
peptide: RDXFRWK
modifications: not fully specified; N-terminal acetyl (Ac); C-terminal amide (NH2); cyclized through the side chains of Asp2 and Lys7; Pip at 3; D-Phe(4-F) at 4; βArg at 5
notes: Synthetic cyclic peptide; also called compound 5; analogue 5
For the molecule B1, the “EC50 (nM), cAMP accumulation” value in assay [1] was greater than 1000 nM; in assay [2], 340 nM; in assay [3], greater than 1000 nM; in assay [4], greater than 1000 nM. Further, the values for the Act % in assay [2], in assay [3] and in assay [4] were 100%, 59% and 62%, respectively. The IC50 in assay [5] came to 14 nM; in assay [6], 59 nM.

For the origin of these results see US20260049105A1 (ARIZONA BOARD OF REGENTS ON BEHALF OF THE UNIVERSITY OF …, published 2026).
